Assay results taken from the DeepSol protein solubility set.

Assay: soluble on expression in E. coli; label from the status in PepcDB or PDB records

Row | Sequence | soluble on expression in E. coli
1 | ETVHETPLLIFPPWINKFYILDLKPQNSLLKWLVDQGFTVFVVSWVNPDKSYAGIGMDDYIREGYMRAMAEVRSITRQKQINAVGYCIAGTTLTLTLAHLQKAGDPSVRSATFFTTLTDFSDPGEVGVFLNDDFVDGIERQVAVDGILDKTFMSRTFSYLRSNDLIYQPAIKSYMMGEAPPAFDLLYWNGDGTNLPAQMAVEYLRGLCQQDRLAGGTFPVLGSPVGLKDVTLPVCAIACETDHIAPWKSSFNGFRQFGSTDKTFILSQSGHV | not soluble
2 | MNDQEFFTVHHALTINVEPLAEHFTLPSHEIFEAEIPAPFVVASEFSQLEQLSDSARMELKNSDFKSVLQLLEAQNAKLNLLLTFMLSQQDDPQSRSATTRFGASQLTYLAKSPLQIGQKVRVKLFLEYPAAAIYCYASVMQCQQEPEHTLVTLKYDLLRDVDQDLLIKAALYQQQRLLRQRSLDREKPQA | soluble
3 | MGSDKIHHHHHHMKADRLLEIVALLQNHEKLTTHQLVDHLHVSSRTILRDMDTLSALGIPIVSERGRAGGWKLMDHFRSQLSGMSMTELKALFILPSDKVLKDLGIPTKGRDIRLNMLSSLQGNRKHAVRPYLEKVYIDTGTWKPSKERMEEFNVVQQAVFEEKKLYIVYENAKGEQRERLISPLGLVAKGSAWYVVATVETGDIRNFKLSRIKDSKLVREPIVKPETFSLATYWNESKEQFVQTLPSYEATVLAHDSIIHRLTFTGKFVENIQVGHRDDEWVTVNLCFHDEQEITEYVLGFGGRMKLVTPKHLIGRIVQQASAVIQQYASDKEPTNETKEGL | not soluble
4 | MPRPQGTVAAAAATTSMSSTRARKDPLRRIGNGNAVAGGLDMTRVGILSDRELAFFQRLAYTGSQAAEQQQRDARKQEEDRRRELSKTRTAGWTDTIEARHDQFVQAQQDAKDAAEARQKVLDELYAKQLEEEHKAVIARQALEHLKEDPRGRHLRSMNMLHEALKARKEQVAYKQMLQREDEAQNANAQREFQLQRWGDQAEELHKKLKARQRNVEEKNANLETVLFQIDQRRQERAVQQQDRKHIDQEAAEERAEQQEEAAQRRARELENGAYNKAHSRPALTRSEKLQTRVAENVKDEAALRAEEEKVDSIKRWVMERQQNKLAAFEERKKAGLRRYLDEAKQENLPTYRTQDVFEKGESFLQKLYDGDVKQQEKQHEYRLEMEQQRLEMEEQKAAEARGDVVGSGDGADGSTSRRHAAATTAAGFLNKAEEMAYAEEMRRYPEQLRAKEAEEAAARRAEALRIERIQKLQAAEKRENARRAVEARREEFRQQQSQQEADDARYRAYIDSVVPADMDPILYRKATQLH | soluble
5 | MVQALPSNIGIQQVTLKVADLDKMVNFYTKTIGLKLLKQGEGRAWLAPQGTNDAILVLKELTAGEENQGTTGLYHIAFLLPTRKDLGNMLLWLLQENVQIGAADHGYSEALYLSDPENNGIEIYWDKPEEVWDIRPNGEIIGVTEELDGDSLAAEADGHWLGISEGSKIGHIHLKVADLDATETFYKNLGFGLKSNFGQQAKFFAAGQYHHHIGTNTWSGKQLPTIQENQFGLENYTFRLPTAADLEIVQANAEEAKLHFIAKDHLLALEDPSGMIIQFTY | not soluble
6 | MSLRIIKAGLIGCGNISSIYFENVHRFKHLTIVACADLHLERARAQAEKYRIPKACTVAELLEDPEIELVINLTIPQVHAKVCIQALEAGKHVYTEKPLTITLEEGQKLLEKAKETGLLVGCAPDTFLGAGIQTSIQVIERGEIGTPVGASAFMIGRGHEHWHPDPAFYYDVGGGPMYDMGPYYLTALTALLGPMARVSGSARITYPERTILSEPKKGTKIKVSTPTHISGVIDFANGAIASITTSFDAFGGSVLPPIEVYGSEGTLLVPDPNTFDGPVQLRKRDEREFVEVPLTYHYTENNRGIGVADMAMSLLTGSDYRASGTMGFHVLEAMHGFHMSSTSGHHYQMKSTCRKPEPLPVDFRFSYVETEGHHHHHH | soluble
7 | MALGGGTFVTQNKILPGSYINFISAKRATSSLSDRGIVAIPLELDWGIDEDVFQVTSDDFEKYSVKYFGYDYTHEKLKGLRDLFKNIRLGYFYKLNKGVKASCTIATAKYSGIRGNDLKVTVTTNIDDNAKFDVVTLLDNKKVDTQIAKVITDLQDNDYITWKKDATLEASAGLVFTGGTNGEAVTGAEYQAFLDKIESYSFNALGCLATTTEIKSLFVEFTKRMRDKVGAKFQTVLYKKSDADYEGVVSVENKIKEIGLVESSLIYWAAGAIAGCDINKSNTNKKYDGEFDVDVNYTQIQLEEALKTGKFIFHKVGDEVHVLEDINTFVSFTDDKNDDFSSNQSVRVLDQIANDIATLFNEKYLGKVPNDKAGRISFWNDVVKHHKELENIRAIEDFKTDDVSVELGNDKKTVIVSDAVKVINAMSKLYMTVSVNLEHHHHHH | soluble
8 | MMEITRETMSFTSTTPSARAPLGGRTTGNVTSQDRMLKIVTEMRSGAGSGLSPFGQNAASTIRDSREREKKEMSDLNDRLASYIEKVRFLEAQNRKLAADLDALRSKWGKDTHNIRNMYEGELVDAQKLIDETNKQRKDMEGQLKKMQDELAEMRRKLEDATKGREQDRAKIDALLVTLSNLEAEISLLKRRIAQLEDEVKRIKQENQRLLSELQRARTDLDQETLNRIDYQNQVQTLLEEIDFLRRVHDNEIKELQTLASRDTTPENREFFKNELSSAIRDIREEYDQVNNVHRNDMESWYRLKVQEIQTQSARQNMEQGYAKEEVKRLRTQLSDLRGKLADLESRNSLLEKQIQELNYQLEDDQRSYEAALNDRDSQIRKMREECQALMVELQMLLDTKQTLDAEIAIYRKMLEGEENRAGLKQLVEQVVKTHAITQETDTETMRVVKGETASRQSFQRSAKGNVSIHEASPDGKFIVLQNTHRAKDEAIGEWKLKRRIDGKRENVYTLPRDFVLRAGKTLKIFARNQGVASPPDQLVYDAEDSFGSGNNVQTILFNKEGEERATHIQRQSTA | not soluble
9 | MLTWSTSATSSKPTLRGKIPNSKAAEEFLDSWDNAVFDGKSTGDPELDREASLWRDKFPHLRITGSRFESQKVTHPIPVDSLSFQKSIIQHSKSANAIREKLPKIDNFKKK | not soluble
10 | MSPAPSRPFSVLRANDVLWLSLTAAEYDQSTYGSSTGPVYVSDSVTLVNVATGAQAVARSLDWTKVTLDGRPLSTIQQHSKTFFVLPLRGKLSFWEAGTTKAGYPYNYNTTASDQLLVENAAGHRVAISTYTTSLGAGPVSISAVAVLA | soluble
11 | MPEHTKVSAEDQALLNKFARSYQTQTQLKADVKEAKTLIDNINEASDEILLLDDEDSASIPCRIGSCFVHFNGDSLNEHLEGKKTTAEKVLSEKTSELDAISADMEQIKKVLYAKFGDQINLDAEE | soluble
12 | MGSDKIHHHHHHMSTKHAIAAAHFLENKENEAWHDHTLWMVRTKRDKMSHSLPEWERLRELASEIKLYSNSHLDTLLEEFEKNAIANGAIVHWAKDAEEHNEIVLRILRQHDARNLIKSKSMLTEECHMNEFLMSKGIDVVESDLGERILQLMHLAPSHIVMPAIHIKREQISEMMEREMGTEKGNIDPTYLTHAARKNLREKFLHADVAMTGANFAVASTGEIVVCTNEGNADMGTSFPKVHIATMGMEKIVPNLEALGVFTRLLARSGTGQPITSYTSHYRRPPEGQEFHIIIVDNGRSDILAKPDHIRTLNCIRCGECMNTCPVYRRSGGYSYTYFIPGPIGINLGMLRNPEEYSDNVSACSLCLSCSNVCPVKIDLGEQIYRWRQDLDKIGKASKEKKVMSFGMKFLMERSGLFNTALKFAPVVNHLPRFMVYNGLNAWGKGRELPAFAKESFNDMWKNNKVR | not soluble
13 | MSDSVSDAQAQSTPEGAQQKPILRVVKGNPDPTQVATLTALFASMADNAAQQSKQERERNLWGNVEERLQRPTTYNPTAFRNVSFF | not soluble
14 | MSARVRPFLMFQGVQAEAAMNFYLSLFDDAEILQIQRYGAEGPGPEGSVLKALFRLGDQSVHCIDSHVRHAFDFTPAFSFFVDCESNAQIERLAEALSDGGKALMPLGDYGFSQRFAWLADRFGVSWQLNLA | soluble
15 | MGILNKILTAFRGGATEVGQSIVDANSTRIFEQEIRDAEKHLTNAKRELTDVMAKEMQASREVDRLKRSIAEHEGYVTQALDKGNEALAIEVAEKIAQLEQELAEQQTANDSFSAHALRLKDLVKKTERQLSDYQRQLSMVKTTESVQKATATITDSFASSNSKLLNAKDSLERIKARQQQFDDRLKAAETLAEEGSDKSLQAKLAEAGIGEQKSNANAVLERIKARKSLEHHHHHH | not soluble
16 | MGSDKIHHHHHHMTAVNIWKPEDNIPREILAILSKPHPNYQLAFLNIIQLLKTQRRTGWVDHGIDPCESISDHMYRMGLTTMLITDKNVDRNKCIRIALVHDFAESLVGDITPNDPMTKEEKHRREFETVKYLCESIIRPCSESASREILDDWLAYEKQTCLEGRYVKDIDKYEMLVQCFEYEQKYNGKKDLKQFLGAINDIKTDEVKKWTQSLLEDRQAFFDSLKE | not soluble
17 | MFILSLLHDTVAIQPHQLSSDQQIVIKKRLNERLANKIIPDLGLCICVYDINEIGDSYILPGEGDCRARVKFRMIVFRPFVDEVIEAKVIGSSRQGLCLTIQFFEDIFVPAEKLPEPHVFEEEGQVWYWEYAQEDGEPPAKLYMDPGKIVRFRVTEIIFKDLKPELTHEERKTEKSMEIKGTMASTGLGCIGWWAAEDEDDEAVEDEQDEQEEVIQPKEEIRQPQEEVRQPVKIKEEPV | not soluble
18 | MRFSILGLAFASVLSGCVSTTPTTSALSSTDVTTFYDYQLHSPSGNALALQNLPDELKNADVILVGEWHTHAGIHRFQTDLLRQLSSGERRIALSMEQVTRDKQSVLDAYLKGEIGEQYFMSQSNAWPNYESDYRPLVEFAKQANLPVIAANTPKYIVRCIGRQGVDYLNKLDDEERSFVAENVNTANSPYKEKFMASMHHGKPEQTEKQYAAQVTWDETMAESIVKYLAQNPNAQVVHVAGKFHTEAGLGTAASILQRNPELKVVVVNPTSEISTNSPDYQLEVLEPPVRFVQDANRMAAYKHLSTRNDDLQCKLEHHHHHH | soluble
19 | MDSDLYDEFGNYIGPELDSDDDAGDIDDNGDDEDRSDVDEDDEPDRMEEDDAEEIPQNQVVLHEDKKYYATALEVYGEGVETLVQEEDAQPLTEPIVKPVSKKKFQAAERFLPETVYKKEYLADLMDCPHIMRNVAIAGHLHHGKTTFLDCLMEQTHPEFYRAEDADARFTDILFIEKQRGCSIKSQPVSIVAQDSRSKSYLLNIIDTPGHVNFSDEMTASYRLADGVVVMVDAHEGVMMNTERAIRHAIQERLAVTLCISKIDRLLLELKLPPADAYFKLRLIIDQVNNILSTFAEEDVPVLSPLNGNVIFSSGRYNVCFSLLSFSNIYAKQHGDSFNSKEFARRLWGDIYFEKKTRKFVKKSPSHDAPRTFVQFILEPMYKIFSQVVGDVDTCLPDVMAELGIRLSKEEQKMNVRPLIALICKRFFGDFSAFVDLVVQNIKSPLENAKTKIEQTYLGPADSQLAQEMQKCNAEGPLMVHTTKNYPVDDATQFHVFGRVMSGTLEANTDVRVLGENYSIQDEEDCRRMTVGRLFVRVASYQIEVSRVPAGCWVLIEGIDQPIVKTATIAELGYEEDVYIFRPLKFNTRSCVKLAVEPINPSELPKMLDGLRKVNKSYPLLTTRVEESGEHVLLGTGEFYMDCVMHDMRKVFSEIDIKVADPVVTFNETVIETSTLKCFAETPNKKNKITMMAEPLEKQLDEDIENEVVQIGWNRRRLGEFFQTKYNWDLLAARSIWAFGPDTTGPNILLDDTLPSEVDKHLLSTVRESLVQGFQWATREGPLCEEPIRQVKFKLLDAAIATEPLYRGGGQMIPTARRCAYSAFLMATPRLMEPYYTVEVVAPADCVAAVYTVLAKRRGHVTTDAPMPGSPMYTISAYIPVMDSFGFETDLRIHTQGQAFCMSAFHHWQLVPGDPLDKSIVIKTLDVQPTPHLAREFMIKTRRRKGLSEDVSVNKFFDDPMLLELAKQQDYTGF | soluble
